Laboratory results as given in the supplement of paper PMC9170038.

System: MS2 coat protein
Assay: apparent KD of MS2 coat protein; higher = weaker reporter binding
Settings: Eterna round: R107
Experimental: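 RNA-MaP round R107: designed RNA switches with theophylline, tryptophan, arginine or FMN aptamers are transcribed on-chip within common flanks. They are titrated with SNAP-549-labelled MS2 coat protein in RNA-MaP buffer (100 mM Tris pH 7.5, 80 mM KCl, 4 mM MgCl2), without ligand or with the indicated ligand. Median apparent KD per design.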

[1] = input ligand: theophylline 20 uM
[2] = input ligand: tryptophan 2.4 mM
[3] = input ligand: theophylline 2 mM

Row | Sequence | apparent KD of MS2 coat protein (input ligand: arginine 13.2 mM) | apparent KD of MS2 coat protein [1] | apparent KD of MS2 coat protein [2] | apparent KD of MS2 coat protein (input ligand: none) | apparent KD of MS2 coat protein [3]
1 | AAACAUUGCUCAGAUACCAGACAUGAGGAUCACCCAUGUACCAAGGUAAAGAAAUAACGUGUCCCUUGGCAGCUGAGCAAUGAAA [MAT - Exclusion Theophlline B - Mod of Eli - D10] | 11.5 nM | 12.8 nM | 10.9 nM | – | –
2 | AAAUAAAUACAUGAGGAUCACCCAUGUGAAGGAGCGCCCGUUAGGGCAGGUAGGUCGCGCAUGAAUAACUCCGUGCAAAAGCACA [ArgEX 19 #OpenEnded] | 57.8 nM | 37.3 nM | 19.6 nM | 15.6 nM | 26.4 nM
3 | AACAGGGCUUCCACGAAGCCCUAAGGUGAUACCAGCACAUGUAAGUGCCCUUGGCAGCACGGUACAUGAGGAUCACCCAUGUAGA [Gerara] | 19.9 nM | 237 nM | 24.3 nM | – | –
4 | AACAGGGUCUGAAGGAGCGCGAUCACAUGAGGAUCACCCAUGUGAAAUGGUAGAUGAUACUCGCAGGUAGGUCGCAGUACUUGAC [Same State Arginine B GF 15] | 54.2 nM | 127 nM | 28.4 nM | 33.6 nM | 82.4 nM
5 | AACAUACAGUUUUAGGUGGAUAUAAGGCGGCGAGGACCGGUACGGCCGCCACUCGCGUACAUGAGGAUCACCCAUGUCUGAAGCU [Same State - Tryptophan A (Freestyle 7)] | 24.4 nM | 59.2 nM | – | – | 86.9 nM
6 | AACAUGAGGAUCACCCAUGUCCCAUGUGAACGAGGACCGGUACGGCCGCCACUCGACCGAGGCGGCACAUGAGGAUCACCCACAU [whbob_SS_trypto A_2s13] | 137 nM | 278 nM | – | – | 370 nM
7 | AACAUGAGGAUCACCCAUGUCGGGCCGGAGCGAGGACCGGUACGGCCGCCACUCGAGACAUGAGGAUCACCCAUGUAGGGCGAAA [Exclusion Tryptophan A GF21] | 61.5 nM | 141 nM | 186 nM | 116 nM | 189 nM
8 | AACAUGAGGAUCACCCAUGUCGGGCCGGUGCGAGGACCGGUACGGCCGCCACUCGAGACAUGAGGAUCACCCAUGUAGGGCGAGA [Exclusion Tryptophan A GF22] | 44 nM | 70.7 nM | 115 nM | 79.7 nM | 80.7 nM
9 | AACAUGAGGAUCACCCAUGUCUGAACUGAAGGAGCGCUAAAUAAGGCAGGUAGGUCGCGGAAUUUUAUAUAUAUAUAUAUAUAGG [9.D] | 28.7 nM | 31.9 nM | 25 nM | 28 nM | 19.8 nM
10 | AACAUGAGGAUCACCCAUGUCUGAACUGAAGGAGCGCUAAAUAAGGCAGGUAGGUCGCGGAAUUUUGUAUAUAUAUAUAUAUGGG [9.F] | 6.01 nM | 28.5 nM | 20.3 nM | 27.7 nM | 25 nM
11 | AACAUGAGGAUCACCCAUGUCUGAACUGAAGGAGCGCUAAAUAAGGCAGGUAGGUCGCGGAAUUUUGUGUGCAUAUGCAUAUGGG [9.I] | 28.1 nM | 32.6 nM | 23.8 nM | 30.3 nM | 29.8 nM
12 | AACGUAUACAGAAGGAGCGUGAAUUAUAUUACUCAUUCAUAUACAUGAGGAUCACCCAUGUCACAGGUAGGUCGCUGUAUUCGUA [JR_ExcArginiB_Sub020] | 55.9 nM | 92 nM | 65.4 nM | 82.2 nM | 86.9 nM
13 | AAGACAUGAGGAUCACCCAUGUCGACAAAACGAGGACCGGUACGGCCGCCACUCGAAAGCAAAUGAGCGCAUGCGGCCUGGGUAU [Exclusion Tryp A GF2] | 10.1 nM | 14.1 nM | 12.7 nM | 11.9 nM | 12 nM
14 | AAGUGGCACGGAAGGAGCGAGUUUACCUAAAUAACAUGAGGAUCACCCAUGUAUAAUGGGACUCAGGUAGGUCGCCGUUGUCACU [Same State Arginine B GF 23] | 22.9 nM | 43.1 nM | 33 nM | 29.3 nM | 28.8 nM
15 | AAUAACAUGAGGAUCACCCAUGUAAAAGAUACCAGAGUGAUGAUCCUCCCUUGGCAGCUUAAACGCUAUUGAUUACAAUAGCGAA [Mat - Same State Theophlline A - Mod of Eli - D2] | 29.8 nM | 114 nM | 28.6 nM | – | –
16 | AAUAAUAUCCUCAUGUGAGUCGUACCGUAACGAGGACCGGUACGGCCGCCACUCGAACAUGAGGAUCACCCAUGUAGGUACGACA [M'-T'-T-MS2-T'' - Design 8] | 42.1 nM | 182 nM | – | – | 238 nM
17 | AAUAAUCUAGGUGAUACCAGCUCAACAUGAGGAUCACCCAUGUACUCAUGUAGAGUUGAGAGCCCUUGGCAGCACCUAGAUAAUA [(Theo1)-(Ms2)-(M)'-(T)'-(Theo2)] | 198 nM | 665 nM | 1020 nM | – | –
18 | AAUAUAAGUGUAAUUAUAUGUAUCUCUGAUACCAGACUCUCAUGUGUCCCUUGGCAGCAGUUACAUGAGGAUCACCCAUGUAUUA [JR_Nu_SSTheophyA_Sub024] | 34.3 nM | 80.2 nM | 84.5 nM | – | –
19 | AAUCUGUCGGGUGAUACCAGCCUCGGCGCAUCUCACGCUGAACAUGAGGAUCACCCAUGUGGCCCUUGGCAGCACAUGACAAAUC [Tivece] | 202 nM | 709 nM | 620 nM | – | –

Row | Sequence | apparent KD of MS2 coat protein (input ligand: arginine 13.2 mM) | apparent KD of MS2 coat protein [1] | apparent KD of MS2 coat protein [2] | apparent KD of MS2 coat protein (input ligand: none) | apparent KD of MS2 coat protein [3]
20 | ACACACAUGAGGAUCACCCAUGUAAUAGAUACCAGUGACGCGGUGCACCCUUGGCAGCUGCUGCUGAGUGAUGGUUCCCUCGGAA [Exclusion Theophylline A GF7] | 16.8 nM | 25.9 nM | 19.2 nM | – | –
21 | ACACAUGAUAGAAGGAGCGCAAUGAACACACAUGAGGAUCACCCAUGUUUUUUUUGUGUUUUGCAGGUAGGUCGCUAACAUGAGG [Same State Arginine B 4] | 11 nM | 23.6 nM | 8.32 nM | 8.66 nM | 11 nM
22 | ACACGAGGAUCACCCGUGUCAUGUGGUGAUACCAGUUUACAUGAGAACCCUUGGCAGCAUAACAACAUGAGGAUCACCCAUGUCA [Same State - Theophylline A #1] | 24.4 nM | 40.4 nM | 35 nM | – | –
23 | ACAUCCAGAUUAAUCGUGGGCAUACUCGAUACCAGUAUUUUAACCUACCCUUGGCAGCGACAUGAGGAUCACCCAUGUGAGAUGA [XTheo A #10] | 21.4 nM | 25.2 nM | 23.8 nM | – | –
24 | ACAUGAAGAACAGCGGUGGGCGCGCUCGAUACCAGUAUUUUAAACUACCCUUGGCAGCGACAUGAGGAUCACCCAUGUGAGAUGA [XTheo A #6] | 16.9 nM | 21.8 nM | 19.5 nM | – | –
25 | ACAUGAGGAUCACCCAUGUAAAUAGCGGAAGGAGCGUGCAAAAGCACAGGUAGGUCGCCGAUAUAAUAAUUGGGUAAUAUAUUAU [#27 Exclusion - Arginine A] | 17.7 nM | 24.6 nM | 26.9 nM | 39.1 nM | 26.2 nM
26 | ACAUGAGGAUCACCCAUGUAACGGCAUAAUCGAGGACCGGUACGGCCGCCACUCGGAAUCAGUGACAGGCAUAUUUAUUAUAAGA [Eclusion - Tryptophan A / A] | 12 nM | 15.6 nM | – | – | 11.5 nM
27 | ACAUGAGGAUCACCCAUGUAAGAUUCAGAAGGAGCGGGAAAUAACCCAGGUAGGUCGCUGAAGUUUGGUUUAUUGUGUUCGUGAA [#07 Exclusion - Arginine A] | 10.2 nM | 13.3 nM | 11.5 nM | 10.4 nM | 11.5 nM
28 | ACAUGAGGAUCACCCAUGUCAUGAGGUUCACGAGGACCGGUACGGCCGCCACUCGACAUGAGGGUCACCCGUGAACGGAACACCC [kpmullin] | 14.7 nM | 23.6 nM | – | – | 17.7 nM
29 | ACAUGAGGAUCACCCAUGUCUGCCACUGAUACCAGCGGAAGCCCACGCCCUUGGCAGCAGAACAUGAGGAUCACCCAUGUAGGCU [Same State Theophylline A GF28] | 55.8 nM | 186 nM | 201 nM | – | –
30 | ACAUGAGGAUCACCCAUGUGAAGCAGGGUACGAGGACCGGUACGGCCGCCACUCGAACAUUAUAACGAGUGAAUGGCAACGAUGU [B15Jan] | 15.7 nM | 18.5 nM | – | – | 13.8 nM
31 | ACAUGAGGAUCACCCAUGUGAAGGCACGAUACCAGCUGAUCCCGUGGCCCUUGGCAGCGUCACGUUUGGUCCCGCGGAUGAGACG [crcmullin] | 20.8 nM | 21.5 nM | 13.8 nM | 14.2 nM | 17 nM
32 | ACAUGAGGAUCACCCAUGUUCCUCAUUGAUACCAGUGAAUUUAGACGCCCUUGGCAGCGAGUUUUUGAAGAAGAAGUUUUUUUUU [6.D] | 235 nM | 731 nM | 1080 nM | – | –
33 | ACAUGAGGAUCACCCAUGUUCCUCAUUGAUACCAGUGAAUUUAGACGCCCUUGGCAGCGAGUUUUUUAAGAAGAAGUUUUUUUUU [6.E] | 551 nM | 793 nM | 992 nM | – | –
34 | ACAUGAGGAUCACCCAUGUUCCUCUUUGAUACCAGUGAGUUGUUUCGCCCUUGGCAGCGAGUUUUUUUUUUUUUGUUUUGUUUGG [6.R] | 173 nM | 351 nM | 264 nM | – | –
35 | ACCUGUACGAAAAGUGCAGGACACGGAAUACGAGGACCGGUACGGCCGCCACUCGGAAUAAACCUGAGGAUCACCCUGGUCCGUG [TrypAS 9 #AlternativeMS2 #Zipper #StaticStem] | 26.8 nM | 39.1 nM | 32.2 nM | 25.1 nM | 34.4 nM
36 | ACGUCACGUUUACUCGUGGUUUCGAUCGAUACCAGUAGCGAGAGUUACCCUUGGCAGCGACAUGAGGAUCACCCAUGUACGAAGA [XTheo A #25] | 10.8 nM | 14.5 nM | 12 nM | – | –
37 | ACGUCCGGGUUAAUCGUGGGCAUGGUCGAUACCAGUAUUUUAAUCUACCCUUGGCAGCGACAUGAGGAUCACCCAUGUGCGAUGA [XTheo A #17] | 15.5 nM | 22.8 nM | 17 nM | – | –
